Data from patent US20030186329A1, “Use of substrate subtraction libraries to distinguish enzyme specificities” (The Scripps Research Institute, priority 1998, published 2003).

What was measured:
Assay type in all cases: biochemical
[1] = molecular target: T1, t-PA (Homo sapiens, UniProt P00750); assay: Dot blot assay of digestion of individual substrate phage stocks by t-PA; conditions: for digestion of phage stock by t-PA: loss of antibody epitopes; for selectivity of substrate phage for t-PA or u-PA: digestion by t-PA and u-PA
T1 sequence (P00750 36-562): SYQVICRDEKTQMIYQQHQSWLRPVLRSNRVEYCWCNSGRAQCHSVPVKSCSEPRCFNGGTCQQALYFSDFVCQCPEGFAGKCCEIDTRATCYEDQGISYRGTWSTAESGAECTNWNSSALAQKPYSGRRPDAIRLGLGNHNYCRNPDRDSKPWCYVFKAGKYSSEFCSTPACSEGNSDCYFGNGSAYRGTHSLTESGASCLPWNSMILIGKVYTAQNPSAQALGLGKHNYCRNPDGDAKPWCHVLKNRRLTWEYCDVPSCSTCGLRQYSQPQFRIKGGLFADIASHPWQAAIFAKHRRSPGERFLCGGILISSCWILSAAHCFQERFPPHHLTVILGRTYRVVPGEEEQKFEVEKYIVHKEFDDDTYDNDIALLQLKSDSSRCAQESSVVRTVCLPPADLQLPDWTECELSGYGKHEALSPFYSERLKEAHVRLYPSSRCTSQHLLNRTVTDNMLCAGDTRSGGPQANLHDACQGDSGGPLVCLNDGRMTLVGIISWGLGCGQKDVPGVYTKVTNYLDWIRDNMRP
Protocol: (§1) To verify that the substrate subtraction library had yielded substrates that were preferentially cleaved by t-PA, digestion of individual phage stocks by t-PA and u-PA was analyzed by a dot blot assay that was performed as previously described (Ding, L., et al., 1995; Smith, M. M., et al., 1995) (FIG. 3). Loss of positive staining indicates loss of antibody epitopes from the phage due to proteolytic cleavage of the random hexamer region.
(§2) In general, with the exception of the screening protocol, procedures followed were those used in Example 1. Digestion of the phage was performed using enzyme concentrations varying from 2-10 μg/ml and incubation times varying from 0.5-10 hours. Phage precipitation and dot blot analysis were performed as described in Example 1. Individual phage stocks were prepared and digested with no enzyme, t-PA, u-PA, or u-PA in the presence of 1 mM amiloride, a specific inhibitor of u-PA′ for periods of time varying from 15 minutes to 10 hours. Individual reaction mixtures were spotted onto a nitrocellulose filter using a dot blotter apparatus (BioRad). The filter was probed with MAb 3E-7 and developed using the Amersham Western ECL kit. Loss of positive staining indicates loss of antibody epitopes from the phage due to proteolytic cleavage of the randomized hexamer region.

[2] = molecular target: T2, u-PA (Homo sapiens, UniProt P00749); assay: Dot blot assay of digestion of individual substrate phage stocks by u-PA; conditions: loss of antibody epitopes
T2 construct: purchased Jack Henkin (Abbott Laboratories)
Protocol: as §1
as §2, with “The filter was probed with MAb 3E-7 and developed using the Amersham Western ECL kit. Loss of positive staining indicates loss of antibody epitopes from the phage due to proteolytic cleavage of the randomized hexamer region.” left out
Two changes were made in the experimental protocol to examine the P3 and P2 preferences of u-PA. […] Although this semi-quantitative assay cannot provide kinetic constants, it can provide an accurate rank ordering of the lability of the substrate phage clones.

[3] = molecular target: T1, t-PA; assay: Kinetics of cleavage of synthetic peptides by t-PA (HPLC, Eadie-Hofstee analysis); conditions: for Km / kcat, t-PA: hydrolysis of peptide by t-PA; for t-PA:u-PA Selectivity: ratio of kcat/Km for peptide hydrolysis, t-PA over u-PA
Protocol: (§3) Concentrations of functional t-PA and u-PA were measured by active site titration with 4-methylumbelliferyl p-guanidinobenzoate (Jameson, G., et al., (1973) Biochem. J. 131, 107-117) using a Perkin-Elmer LS 50B Luminescence Fluorometer as previously described (Madison, E. L., et al., (1995) J. Biol. Chem. 270: 7558-7562). In addition, the enzymes were titrated with a standard PAI-1 preparation that had been previously titrated against a trypsin primary standard. Total enzyme concentrations were measured by ELISA.
(§4) Individual phage stocks were prepared and digested with no enzyme, t-PA, u-PA, or u-PA in the presence of 1 mM amiloride, a specific inhibitor of u-PA. Kinetic-data were obtained by incubating various concentrations of peptide with a constant enzyme concentration to achieve between 5 and 20% cleavage of the peptide in each reaction. For assays with u-PA, enzyme concentration was either 815 or 635 nM. For assays with t-PA enzyme concentration was 700 nM. […] The buffer used in these assays has been described (Madison, E. L., et al., 1995). Reactions were stopped by addition of triflouroacetic acid to 0.33% or by freezing on dry ice. Cleavage of the 13 and 14 residue peptides was monitored by reverse phase HPLC as described (Madison, E. L., et al., 1995). The 4-6 residue peptides were acylated at their amino termini and amidated at their carboxyl termini. Cleavage of the 4-6 residue peptides was monitored by hydrophilic interaction HPLC chromatography (HILIC) (Alpert, A. J. (1990) J. Chromatog. 499, 177-196.) using a polyhydroxyaspartamine column from PolyLC (Columbia, Md.). Buffer A was 50 mM triethylamine phosphate in 10% acetonitrile and buffer B was 10 mM triethylamine phosphate in 80% acetonitrile. Peptides were eluted by a gradient which was varied from 100% Buffer B to 100% Buffer A during a 13 minute interval. The percent of cleaved peptide was calculated by dividing the area under the product peaks by the total area under substrate and product peaks. For all peptides containing multiple basic residues, mass spectral analysis of products confirmed that cleavage occurred at a single site and identified the scissile bond. Data were interpreted by Eadie-Hofstee analysis. Errors were determined as described (Taylor, J. R., 1982) An introduction to error analysis. The study of uncertainties in physical measurements. University Science Books, Mill Valley, Calif.) and were <25%.
(§5) Kinetic data were obtained by incubating various concentrations of peptide with a constant enzyme concentration to achieve between 5 and 20% cleavage of the peptide in each reaction as described in Example 1.

[4] = molecular target: T2, u-PA; assay: Kinetics of cleavage of synthetic peptides by u-PA (HPLC, Eadie-Hofstee analysis); conditions: hydrolysis of peptide by u-PA
Protocol: as §3, §4, §5

[5] = system: u-PA; assay: as above; conditions: ratio of kcat/Km for peptide hydrolysis, u-PA over t-PA
Protocol: as §3, §4, §5

Substance	Km [3]	kcat, t-PA [3]	Km [4]	kcat, u-PA [4]	also measured
PGRVVG [Control phage PL, reference compound]					digestion of phage stock by t-PA [1]: not digested by either enzyme; digestion of phage stock by u-PA [2]: not digested by either enzyme
SGK↓S (SGKS; listed as Homo sapiens) [XVII]	28 mM	0.19 s⁻¹	7.9 mM	1.22 s⁻¹	t-PA:u-PA Selectivity [3]: 0.04
LGGSGR↓KASLSLE (LGGSGRKASLSLE; listed as Homo sapiens) [XIV]	5.1 mM	0.168 s⁻¹	1.13 mM	1.14 s⁻¹	
GSGK↓S (GSGKS; listed as Homo sapiens) [XVIII]	44 mM	0.07 s⁻¹	4.25 mM	0.82 s⁻¹	u-PA:t-PA Selectivity [5]: approximately 120
SGR↓SA (SGRSA; listed as Homo sapiens) [XVI]	40 mM	2.4 s⁻¹	3.1 mM	3.7 s⁻¹	
LGGSGR↓SATRDLE (LGGSGRSATRDLE; listed as Homo sapiens) [XIII]	1.5 mM	0.068 s⁻¹	0.733 mM	0.54 s⁻¹	
FRGR↓K (FRGRK; listed as Homo sapiens) [VII]					t-PA:u-PA Selectivity [3]: approximately 74
SGR↓S (SGRS; listed as Homo sapiens) [XV]	15 mM	5.0 s⁻¹	2.1 mM	2.3 s⁻¹	t-PA:u-PA Selectivity [3]: 0.30
RIARRA [Substrate phage 51]					digestion of phage stock by t-PA [1]: substrate of both t-PA and u-PA; digestion of phage stock by u-PA [2]: substrate of both t-PA and u-PA
FRGRAA [Phage 7]					selectivity of substrate phage for t-PA or u-PA [1]: t-PA selective substrate
RSANAI [Phage 33]					selectivity of substrate phage for t-PA or u-PA [1]: u-PA selective substrate
